Experimental data reported in patent publication US6852842B2, “Methods for functional kidney imaging using small dendrimer contrast agents” (The United States of America as represented by the …, priority 2002, dated 2005).

What was measured:
[1] = Biodistribution and whole body retention of 153Gd-labeled dendrimer-1B4M-Gd conjugates; format: in vivo, nude mice; conditions: for cleared from the body within 15 min after injection / excretion from the body, rank among conjugates: mouse, in vivo
Protocol: Radioactive dendrimer conjugates used for biodistribution studies were prepared as follows. ^153GdCl3 containing no other stable isotope of Gd (III) was purchased from NEN DuPont (Boston, Mass.). Approximately 1,500 μg of each dendrimer (containing 2 μmol of 1B4M) was reacted with 1.11 MBq (30 μCi) of ^153Gd citrate (46 pmol) in 0.3 M citrate buffer at pH 5 for 30 min at room temperature. The preparation was then mixed with a 3-fold molar excess of non-radiolabeled Gd(III) citrate (6 μmol) to conjugate 1B4M to fully saturate the chelating groups with Gd(III). This reaction was incubated for 30 min before the addition of ethylenediaminetetraacetic acid (EDTA) and subsequent column purification. To remove any non-incorporated free metal, 10 μl of 0.5 M EDTA (Sigma, St. Louis, Mo.) was added to minimized formation of Gd(OH)3 precipitate. The product was purified using a PD-10 column (Pharmacia, Uppsala, Sweden), eluting with PBS, (pH 7.4). The radio-purity of each preparation was analyzed by size-exclusion HPLC using a TSK G3000SW column (TosoHaas, Philadelphia, Pa.; 0.1 M PBS; 0.01 M KCl; pH 7.4; 1 ml/min). DTPA (Sigma) was also labeled with ^153Gd in 0.3-M citrate buffer for 30 min at room temperature. The radiolabeling yields of all preparations ranged from 47% to 55%. The radio-purity of all preparations analyzed by size-exclusion HPLC was greater than 97%.
Seven groups of nude mice (n=4 in each group) were injected with 37 kBq (1 μCi)/200 μl of ^153Gd-labeled dendrimer-1B4M-Gd conjugates or ^153Gd-DTPA. The injected samples were added to non-radioactive preparations and the total gadolinium dose was adjusted to 0.02 mmol Gd/kg, 20% of the dose of Gd-[DTPA]-dimeglumine routinely used clinically. The mice were sacrificed 15 min after the injection of the ^153Gd-labeled preparations and biodistribution studies were performed. The data were expressed as the percentage of the injected dose per gram (% ID/g) of tissue. The carcasses of the mice were also counted to calculate the whole body retention (% ID).

[2] = test system: kidneys of mice; test: Serial dynamic high-resolution MR imaging of the kidneys of mice; format: in vivo
Protocol: The mice were anesthetized with 1.15 mg of sodium pentobarbital (Dainabot, Osaka, Japan) and placed in the center of the coils. The fast spoiled gradient echo technique ([…] 71; flip angle 30°; scan time 3'07''; phase encoding steps 512×256; 2 number of excitations; slab thickness 16) with fat-suppression technique and serial 3D data acquisition was used to acquire images every 3.1 min from 0 (immediately after injection) to 12 min after injection of the contrast agents for all mice studied. The coronal images were reconstructed with 0.6-mm thick sections with a 0.3-mm overlap reconstruction. The field of view was 6×3 cm and the size of the matrix was 512×256. The reproducibility of the experiments (two mice in each group) was confirmed by repeating the experiments under the same conditions using a different 1.5-tesla superconductive MRI instrument (Signa Horizon, GE).

[3] = in vivo; cited from earlier work
[4] = Contrast-enhanced dynamic whole body 3D-micro-MRI of mice; format: in vivo, nude mice; conditions: 0.03 mmol Gd/kg, all times up to 15 min
Protocol: To evaluate the whole body pharmacokinetics of the contrast agents, seven groups of 8-week-old female nude mice (n=4 in each group) (NCI, Frederick, Md.) were used to obtain contrast-enhanced dynamic 3D-micro-MR images. […] All images were obtained using the high-resolution wrist coil (GE) with a custom mouse holder using a clinical-grade 1.5-tesla superconductive magnet unit (Signa LX, General Electric Medical System, Milwaukee, Wis.). The mice were anesthetized with 1.15 mg of sodium pentobarbital (Dainabot, Osaka, Japan) and placed in the center of the coils. The fast spoiled gradient echo technique ([…] 19.4/4.2; flip angle 60°; scan time 1'40''; phase encoding steps 256×256; 3 number of excitations; slab thickness 12) with chemical fat-suppression technique and serial 3D data acquisition was used to acquire images every 2 min from 0 (immediately after injection) to 14 min after injection of the contrast agents for all mice studies. The coronal images for dynamic MRI were reconstructed with 2-mm section thickness without gap reconstruction. In addition, slice data was processed into 3D images with the maximum intensity […] (MIP) method (Advantage Windows, General Electric Medical System).

[5] = test system: COX-2 knock-out mice; test: Contrast-enhanced dynamic 3D-micro-MRI of mice with chronic renal failure; format: in vivo; conditions: 0.03 mmol Gd/kg i.v., images over 14 min post-injection
Protocol: To determine if dendrimer-enhanced MR imaging according to the disclosure could detect chronic kidney failure and renal cysts, serial dynamic MR images of normal and 7 month old COX-2 knock-out mice (n=4) were obtained. The later mice have renal cysts and chronic renal failure. The contrast-enhanced dynamic MRI scans were obtained using the fast spoiled gradient echo technique (efgre3d; TR/TE 20.4/7.2; TI49; flip angle 30°; scan time 1′52″; phase encoding steps 512×256; 3 NEX; slab thickness 16) with fat-suppression technique following intravenous injection of 0.03 mmol Gd/kg G4-(1B4M-Gd)64. Serial multi-slice 3D data was obtained over a period of 14 min post-injection of the contrast agents for all mice studied. The width of the cortex and outer stripe of the outer medulla were measured. The combined width of the cortex and outer medulla measured by PAMAM-G4 enhanced MR imaging was much smaller in COX-2 knockout mice (left) than normal mice (right), and correlated with histological thickness (obtained at the time of sacrifice). […] These images show the thicker width of the cortex and outer medulla in the normal mice (FIG. 7a) in comparison to the COX-2 knockout mice (FIG. 7b). […] Thus, contrast-enhanced dynamic 3D-micro-MR imaging can be used to detect chronic renal failure and renal cysts.

[6] = mice; cited from earlier work

Compound: O=C([O-])CN(CCN(CC(=O)[O-])CC(=O)O)CCN(CC(=O)[O-])CC(=O)O.[153Gd+3] [Gd-DTPA, reference compound]
- amount of 153Gd-labeled agent remaining in the blood ([1]; nude mice, 15 min after injection, 0.02 mmol Gd/kg): 2.7±0.1 % ID/g

Compound: CNC[C@H](O)[C@@H](O)[C@H](O)[C@H](O)CO.CNC[C@H](O)[C@@H](O)[C@H](O)[C@H](O)CO.O=C([O-])CN(CCN(CC(=O)[O-])CC(=O)O)CCN(CC(=O)[O-])CC(=O)O.[Gd+3] [Gd-[DTPA]-dimeglumine, Gd-DTPA-dimeglumine]
- visualization of the proximal straight tubule of the kidney ([2]; double dose 0.06 mmol Gd/kg): not visualized
- bright white band at the outer stripe of the outer medulla ([2]; high-resolution coronal images, dendrimers 0.03 mmol Gd/kg, Gd-[DTPA]-dimeglumine 0.03 or 0.06 mmol Gd/kg): not observed
- MRI signal from the renal pelvis region ([2]; higher doses, e.g. 0.1 mmol Gd/kg): loss of signal

Compound: DAB-Am16-(Gd-1B4M)16 [DAB-G2]
- cleared from the body within 15 min after injection [1]: Greater than 60 % ID
- excretion from the body, rank among conjugates [1]: most rapidly excreted

Compound: DAB-Am-32-(Gd-1B4M)32 [DAB-G3]
- cleared from the body within 15 min after injection [1]: Greater than 60 % ID
- excretion from the body, rank among conjugates [1]: most rapidly excreted

Compound: DAB-Am-64-(Gd-1B4M)64 [DAB-G4]
- accumulation in the kidney vs PAMAM-G4D-(1B4M)64 [3]: less
- accumulation in the liver vs PAMAM-G4D-(1B4M)64 [3]: significantly more

Compound: PAMAM-G2D-(Gd-1B4M)16
- cleared from the body within 15 min after injection [1]: Greater than 60 % ID
- excretion from the body, rank among conjugates [1]: most rapidly excreted

Compound: PAMAM-G4D-(Gd-1B4M)64
- MRI signal intensity in the left ventricle of the heart [4]: highest
- combined width of the cortex and outer medulla in COX-2 knockout mice vs normal mice by enhanced MR imaging [5]: much smaller
- injected dose excreted during the first two days following administration [6]: 20 % ID
